What was measured:
[1] = molecular target: BG505 SOSIP.664 gp140 trimer (HIV-1 subtype A transmitted/founder virus BG505); assay: native gel or EMSA; BN-PAGE, Coomassie blue staining, of 2G12-affinity-purified Env proteins and of SEC-purified trimers from stable cell lines and transient transfection
[2] = molecular target: uncleaved CZA97.012 gp140 (HIV-1 subtype C, CZA97.012 | not stated); assay: SEC

Substance	stoichiometry N [1]	stoichiometry N [2]
BG505 SOSIP.664 gp140 trimer (complex)	3	–
uncleaved CZA97.012 gp140	–	3

Source: PMC4032163
